Results reported in publication PMC4479991.

What was measured:
[1] = molecular target: zif268 (EGR1 DNA-binding domain), cleaved (UniProt P08046); assay: solid-state nanopore; conditions: EMSA: binding on ice, at least 1 h, native PAGE 8% (oligos) or 3.5% (1 kb), salt up to 1 M KCl; nanopore: 1 M KCl, 30 min incubation at 200:1 protein:DNA; pH …
[2] = molecular target: zif268_GST (uncleaved fusion) (UniProt P08046); assay: EMSA; conditions: EMSA: binding on ice, at least 1 h, native PAGE 8% (oligos) or 3.5% (1 kb), salt up to 1 M KCl; nanopore: 1 M KCl, 30 min incubation at 200:1 protein:DNA; pH …

**Q.** For (-)DNA 960 bp, which binding signal (% ABA (specifically bound) events) [1] is on record?
**A.** 4.3

**Q.** Which binding signal (% ABA (specifically bound) events) [1] does the source give for “CGTCAGGGCAAGCCTTATTCACTGAATGAGCAGCTTTGTTACGTTGATTTGGGTAATGAATATCCGGTTCTTGTCAAGATTACTCTTGATGAAGGTCAGCCAGCCTATGCGCCTGGTCTGTACACCGTTCATCTGTCCTCTTTCAAAGTTGGTCAGTTCGGTTCCCTTATGATTGACCGTCTGCGCCTCGTTCCGGCTAAGTAACATGGAGCAGGTCGCGGATTTCGACACAATTTATCAGGCGATGATACAAATCTCCGTTGTACTTTGTTTCGCGCTTGGTATAATCGCTGGGGGTCAAAGATGAGTGTTTTAGTGTATTCTTTCGCCTCTTTCGTTTTAGGTTGGTGCCTTCGTAGTGGCATTACGTATTTTACCCGTTTAATGGAAACTTCCTCATGAAAAAGTCTTTAGTCCTCAAAGCCTCTGTAGCCGTTGCTACCCTCGTTCCGATGCTGTCTTTCGCTGCTGAGGGTGACGATCCCGCAAAAGCGGCCTTTAACTCCCTGCAAGCCTCAGCGACCGAATATATCGGTTATGCGTGGGCGATGGTTGTTGTCATTGTCGGCGCAACTATCGGTATCAAGCTGTTTAAGAAATTCACCTCGAAAGCAAGCTGATAAACCGATACAATTAAAGGCTCCTTTTGGAGCCTTTTTTTTTGGAGATTTTCAACGTGAAAAAATTATTATTCGCAATTCCTTTAGTTGTTCCTTTCTATTCTCACTCCGCTGAAACTGTTGAAAGTTGTTTAGCAAAACCCCATACAGAAAATTCATTTACTAACGTCTGGAAAGACGACAAAACTTTAGATCGTTACGCTAACTATGAGGGTTGTCTGTGGAATGCTACAGGCGTTGTAGTTTGTACTGGTGACGAAACTCAGTGTTACGGTACATGGGTTCCTATTGGGCTTGCTATCCCTGAAAATGAGGGTGGTGGCTCTGAGGGTGGCGGTTCTGAGGGTGGCGGTTCTGAGGGTGGCGGTACTAAACCTCCTGAGTACGGT (double strand) [(+)DNA 1009 bp]” here?
**A.** 11.5

**Q.** And the binding signal (% bound at 1:250 DNA:protein) [2]?
**A.** 50
